From doi:10.1101/2020.06.09.141986

Biological target: Aldob (aldolase B) (UniProt P05062)
Experiment: anti-Flag co-IP, immunoblot
Conditions: reference: Akt1 wild type

Row | binding against the reference (sites S473) | binding against the reference (sites T308) | Substance
1 | weaker | – | Akt1 (from UniProt P31749) Akt1-S473A
2 | – | weaker | Akt1 (from UniProt P31749) Akt1-T308A
